Source: US20250361268A1, “NOVEL ANTI-INFLAMMATORY PEPTIDE AND USE THEREOF” (NOVACELL TECHNOLOGY INC., priority 2022, published 2025)

T1: formyl peptide receptor 2 (FPR2) (UniProt P25090 1-351, limits assumed)
T1 sequence (looked up): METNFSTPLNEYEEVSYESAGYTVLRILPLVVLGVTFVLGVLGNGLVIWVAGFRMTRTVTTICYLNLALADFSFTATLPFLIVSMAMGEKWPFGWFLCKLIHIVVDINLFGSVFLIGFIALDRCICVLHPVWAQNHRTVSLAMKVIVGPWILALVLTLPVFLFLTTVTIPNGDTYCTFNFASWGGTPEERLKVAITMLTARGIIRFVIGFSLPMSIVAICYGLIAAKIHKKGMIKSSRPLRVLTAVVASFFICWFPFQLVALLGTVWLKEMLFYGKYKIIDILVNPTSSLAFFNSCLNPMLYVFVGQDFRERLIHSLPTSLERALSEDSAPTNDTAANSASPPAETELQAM

T2: FPR1 (UniProt P21462 1-350, limits assumed)
T2 sequence (looked up): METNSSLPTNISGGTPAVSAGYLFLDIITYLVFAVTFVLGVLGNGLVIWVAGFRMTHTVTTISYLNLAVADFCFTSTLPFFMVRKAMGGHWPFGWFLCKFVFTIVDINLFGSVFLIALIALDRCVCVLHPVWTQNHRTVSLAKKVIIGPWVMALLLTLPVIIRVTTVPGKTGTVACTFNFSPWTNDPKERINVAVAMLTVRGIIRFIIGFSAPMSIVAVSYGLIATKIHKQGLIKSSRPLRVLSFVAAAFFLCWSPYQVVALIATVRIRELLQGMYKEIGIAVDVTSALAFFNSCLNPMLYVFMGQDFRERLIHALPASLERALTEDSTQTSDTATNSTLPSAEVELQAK

B1: peptide of SEQ ID NO 137 (peptide)
peptide: IKYKVM
HELM: PEPTIDE1{[CCCCCCCC(=O)[*:2]].I.K.Y.K.V.[dM].[am]}$$$$V2.0
SMILES: CCCCCCCC(=O)N[C@H](C(=O)N[C@@H](CCCCN)C(=O)N[C@@H](Cc1ccc(O)cc1)C(=O)N[C@@H](CCCCN)C(=O)N[C@H](C(=O)N[C@H](CCSC)C(N)=O)C(C)C)[C@@H](C)CC
B2: peptide of SEQ ID NO 150 (peptide)
peptide: HKYWPM
HELM: PEPTIDE1{[ac].H.K.Y.W.P.[dM].[am]}$$$$V2.0
SMILES: CSCC[C@@H](NC(=O)[C@@H]1CCCN1C(=O)[C@H](Cc1c[nH]c2ccccc12)NC(=O)[C@H](Cc1ccc(O)cc1)NC(=O)[C@H](CCCCN)NC(=O)[C@H](Cc1c[nH]cn1)NC(C)=O)C(N)=O
B3: peptide of SEQ ID NO 120 (peptide)
peptide: MRYYPM
HELM: PEPTIDE1{M.R.Y.Y.P.[dM].[am]}$$$$V2.0; N-terminus assumed
SMILES: CSCC[C@H](N)C(=O)N[C@@H](CCCNC(=N)N)C(=O)N[C@@H](Cc1ccc(O)cc1)C(=O)N[C@@H](Cc1ccc(O)cc1)C(=O)N1CCC[C@H]1C(=O)N[C@H](CCSC)C(N)=O
B4: peptide of SEQ ID NO 1 (peptide)
peptide: RWRYKVM
HELM: PEPTIDE1{R.W.R.Y.K.V.[dM].[am]}$$$$V2.0; N-terminus assumed
SMILES: CSCC[C@@H](NC(=O)[C@@H](NC(=O)[C@H](CCCCN)NC(=O)[C@H](Cc1ccc(O)cc1)NC(=O)[C@H](CCCNC(=N)N)NC(=O)[C@H](Cc1c[nH]c2ccccc12)NC(=O)[C@@H](N)CCCNC(=N)N)C(C)C)C(N)=O
B5: peptide of SEQ ID NO 117 (peptide)
peptide: RWRYWPM
HELM: PEPTIDE1{[ac].R.W.R.Y.W.P.[dM].[am]}$$$$V2.0
SMILES: CSCC[C@@H](NC(=O)[C@@H]1CCCN1C(=O)[C@H](Cc1c[nH]c2ccccc12)NC(=O)[C@H](Cc1ccc(O)cc1)NC(=O)[C@H](CCCNC(=N)N)NC(=O)[C@H](Cc1c[nH]c2ccccc12)NC(=O)[C@H](CCCNC(=N)N)NC(C)=O)C(N)=O
B6: peptide of SEQ ID NO 122 (peptide)
peptide: WRYYPM
HELM: PEPTIDE1{[ac].W.R.Y.Y.P.[dM].[am]}$$$$V2.0
SMILES: CSCC[C@@H](NC(=O)[C@@H]1CCCN1C(=O)[C@H](Cc1ccc(O)cc1)NC(=O)[C@H](Cc1ccc(O)cc1)NC(=O)[C@H](CCCNC(=N)N)NC(=O)[C@H](Cc1c[nH]c2ccccc12)NC(C)=O)C(N)=O
B7: peptide of SEQ ID NO 119 (peptide)
peptide: RMRYYPM
HELM: PEPTIDE1{[ac].R.M.R.Y.Y.P.[dM].[am]}$$$$V2.0
SMILES: CSCC[C@H](NC(=O)[C@H](CCCNC(=N)N)NC(C)=O)C(=O)N[C@@H](CCCNC(=N)N)C(=O)N[C@@H](Cc1ccc(O)cc1)C(=O)N[C@@H](Cc1ccc(O)cc1)C(=O)N1CCC[C@H]1C(=O)N[C@H](CCSC)C(N)=O
B8: peptide of SEQ ID NO 151 (peptide)
peptide: HKYWPM
HELM: PEPTIDE1{[CCCC(=O)[*:2]].H.K.Y.W.P.[dM].[am]}$$$$V2.0
SMILES: CCCC(=O)N[C@@H](Cc1c[nH]cn1)C(=O)N[C@@H](CCCCN)C(=O)N[C@@H](Cc1ccc(O)cc1)C(=O)N[C@@H](Cc1c[nH]c2ccccc12)C(=O)N1CCC[C@H]1C(=O)N[C@H](CCSC)C(N)=O
B9: peptide of SEQ ID NO 4 (peptide)
peptide: KWKYKVM
HELM: PEPTIDE1{[ac].K.W.K.Y.K.V.[dM].[am]}$$$$V2.0
SMILES: CSCC[C@@H](NC(=O)[C@@H](NC(=O)[C@H](CCCCN)NC(=O)[C@H](Cc1ccc(O)cc1)NC(=O)[C@H](CCCCN)NC(=O)[C@H](Cc1c[nH]c2ccccc12)NC(=O)[C@H](CCCCN)NC(C)=O)C(C)C)C(N)=O
B10: peptide of SEQ ID NO 14 (peptide)
peptide: MRYKVM
HELM: PEPTIDE1{[ac].M.R.Y.K.V.[dM].[am]}$$$$V2.0
SMILES: CSCC[C@H](NC(C)=O)C(=O)N[C@@H](CCCNC(=N)N)C(=O)N[C@@H](Cc1ccc(O)cc1)C(=O)N[C@@H](CCCCN)C(=O)N[C@H](C(=O)N[C@H](CCSC)C(N)=O)C(C)C
B11: peptide of SEQ ID NO 31 (peptide)
peptide: HMRYRVM
HELM: PEPTIDE1{H.M.R.Y.R.V.[dM].[am]}$$$$V2.0; N-terminus assumed
SMILES: CSCC[C@H](NC(=O)[C@@H](N)Cc1c[nH]cn1)C(=O)N[C@@H](CCCNC(=N)N)C(=O)N[C@@H](Cc1ccc(O)cc1)C(=O)N[C@@H](CCCNC(=N)N)C(=O)N[C@H](C(=O)N[C@H](CCSC)C(N)=O)C(C)C
B12: peptide of SEQ ID NO 121 (peptide)
peptide: RWRYYPM
HELM: PEPTIDE1{[ac].R.W.R.Y.Y.P.[dM].[am]}$$$$V2.0
SMILES: CSCC[C@@H](NC(=O)[C@@H]1CCCN1C(=O)[C@H](Cc1ccc(O)cc1)NC(=O)[C@H](Cc1ccc(O)cc1)NC(=O)[C@H](CCCNC(=N)N)NC(=O)[C@H](Cc1c[nH]c2ccccc12)NC(=O)[C@H](CCCNC(=N)N)NC(C)=O)C(N)=O
B13: peptide of SEQ ID NO 115 (peptide)
peptide: MKYWPM
HELM: PEPTIDE1{[CCCC(=O)[*:2]].M.K.Y.W.P.[dM].[am]}$$$$V2.0
SMILES: CCCC(=O)N[C@@H](CCSC)C(=O)N[C@@H](CCCCN)C(=O)N[C@@H](Cc1ccc(O)cc1)C(=O)N[C@@H](Cc1c[nH]c2ccccc12)C(=O)N1CCC[C@H]1C(=O)N[C@H](CCSC)C(N)=O
B14: peptide of SEQ ID NO 46 (peptide)
peptide: PMRYKYM
HELM: PEPTIDE1{P.M.R.Y.K.Y.[dM].[am]}$$$$V2.0; N-terminus assumed
SMILES: CSCC[C@H](NC(=O)[C@@H]1CCCN1)C(=O)N[C@@H](CCCNC(=N)N)C(=O)N[C@@H](Cc1ccc(O)cc1)C(=O)N[C@@H](CCCCN)C(=O)N[C@@H](Cc1ccc(O)cc1)C(=O)N[C@H](CCSC)C(N)=O
B15: peptide of SEQ ID NO 45 (peptide)
peptide: HMRYKYM
HELM: PEPTIDE1{[CCCC(=O)[*:2]].H.M.R.Y.K.Y.[dM].[am]}$$$$V2.0
SMILES: CCCC(=O)N[C@@H](Cc1c[nH]cn1)C(=O)N[C@@H](CCSC)C(=O)N[C@@H](CCCNC(=N)N)C(=O)N[C@@H](Cc1ccc(O)cc1)C(=O)N[C@@H](CCCCN)C(=O)N[C@@H](Cc1ccc(O)cc1)C(=O)N[C@H](CCSC)C(N)=O
B16: peptide of SEQ ID NO 118 (peptide)
peptide: WRYWPM
HELM: PEPTIDE1{W.R.Y.W.P.[dM].[am]}$$$$V2.0; N-terminus assumed
SMILES: CSCC[C@@H](NC(=O)[C@@H]1CCCN1C(=O)[C@H](Cc1c[nH]c2ccccc12)NC(=O)[C@H](Cc1ccc(O)cc1)NC(=O)[C@H](CCCNC(=N)N)NC(=O)[C@@H](N)Cc1c[nH]c2ccccc12)C(N)=O

What follows are binders tested against T1, formyl peptide receptor 2 (FPR2) (assay: cell-based or functional assay).

Row | EC50 for [Ca2+] [nM] | Binder
1 | < 10 | B1
2 | < 10 | B2
3 | < 10 | B3
4 | < 10 | B4
5 | < 10 | B5
6 | < 10 | B6
7 | < 10 | B7
8 | < 10 | B8
9 | < 10 | B9
10 | < 10 | B10
11 | < 10 | B11
12 | < 10 | B12
13 | < 10 | B13
14 | < 10 | B14
15 | < 10 | B15
16 | < 10 | B16

Each binder was assayed against T2, FPR1 (assay: cell-based or functional assay).

Row | EC50 for [Ca2+] [nM] | Binder
17 | > 10000 | B4
18 | > 10000 | B9
19 | > 10000 | B14
20 | > 10000 | B15
